Assay results taken from US20210332120A1.

Biological target: human IL-17A (human) (UniProt Q16552)
Test: cell-based or functional assay

Chain of human IL-17A (human) (Q16552 20-155 limits assumed): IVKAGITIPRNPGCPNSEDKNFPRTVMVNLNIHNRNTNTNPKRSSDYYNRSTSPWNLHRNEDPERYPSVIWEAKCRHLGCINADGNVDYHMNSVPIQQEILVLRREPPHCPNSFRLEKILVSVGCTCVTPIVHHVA

IC50, IL-17A-dependent IL-6 production, HT1080 cells: 9.2 ng/mL | IC50, dual IL-17A/TNFα-dependent IL-6 production, HT1080 cells: 25 pM
Substance: BCD-085 anti-IL-17A monospecific antibody (BIOCAD)
